Data on seven molecules can be found in US20070054353A1 (published 2007).

First the molecules themselves.
T1: GST-TIF2.1 (UniProt Q15596 624-1287)
T1 construct: also called GST fused to TIF2.1; not shown: glutathione S-transferase (GST) tag of vector pGEX2T
T1 sequence (looked up): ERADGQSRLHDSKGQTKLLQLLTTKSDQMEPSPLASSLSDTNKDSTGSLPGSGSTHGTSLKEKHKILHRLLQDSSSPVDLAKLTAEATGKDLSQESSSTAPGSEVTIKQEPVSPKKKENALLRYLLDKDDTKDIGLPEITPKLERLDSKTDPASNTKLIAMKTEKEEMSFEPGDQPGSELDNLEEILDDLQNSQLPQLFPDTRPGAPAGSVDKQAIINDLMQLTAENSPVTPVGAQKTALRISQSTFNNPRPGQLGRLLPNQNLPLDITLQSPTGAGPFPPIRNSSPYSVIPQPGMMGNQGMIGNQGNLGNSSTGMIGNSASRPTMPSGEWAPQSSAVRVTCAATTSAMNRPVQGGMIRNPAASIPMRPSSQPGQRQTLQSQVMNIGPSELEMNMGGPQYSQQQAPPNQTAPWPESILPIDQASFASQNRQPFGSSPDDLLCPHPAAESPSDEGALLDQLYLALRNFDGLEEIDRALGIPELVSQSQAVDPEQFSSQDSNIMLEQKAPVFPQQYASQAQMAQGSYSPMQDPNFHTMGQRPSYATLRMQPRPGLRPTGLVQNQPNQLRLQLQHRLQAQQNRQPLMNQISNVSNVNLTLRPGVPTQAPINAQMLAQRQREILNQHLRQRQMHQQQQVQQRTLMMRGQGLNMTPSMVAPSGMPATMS

T2: ERα-EYFP fusion protein (UniProt P03372 1-595)
T2 construct: also called EYFP-ERα; not shown: EYFP (engineered fluorescent protein) of vector pEYFP-CMV
T2 sequence (looked up): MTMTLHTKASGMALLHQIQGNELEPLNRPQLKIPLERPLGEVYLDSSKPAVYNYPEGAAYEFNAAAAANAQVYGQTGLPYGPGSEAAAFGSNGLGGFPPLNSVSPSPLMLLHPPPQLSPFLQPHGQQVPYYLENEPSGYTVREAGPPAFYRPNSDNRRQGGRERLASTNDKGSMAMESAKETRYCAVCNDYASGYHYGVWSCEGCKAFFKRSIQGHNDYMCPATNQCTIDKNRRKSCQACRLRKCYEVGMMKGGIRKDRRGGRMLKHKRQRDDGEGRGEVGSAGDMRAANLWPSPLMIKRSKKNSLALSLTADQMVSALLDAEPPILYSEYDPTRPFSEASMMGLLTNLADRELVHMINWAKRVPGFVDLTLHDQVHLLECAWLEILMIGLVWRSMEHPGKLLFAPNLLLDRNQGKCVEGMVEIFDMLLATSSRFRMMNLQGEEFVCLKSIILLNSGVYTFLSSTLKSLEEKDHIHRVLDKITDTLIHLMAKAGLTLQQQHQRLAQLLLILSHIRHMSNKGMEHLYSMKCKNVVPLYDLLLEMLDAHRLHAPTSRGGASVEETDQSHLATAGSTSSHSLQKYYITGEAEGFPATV

B1: Flag-m1+2 (Flag-tagged LCoR mutated in both CtBP binding sites) (other, not shown: small tags and cut ends)
chain: MQRMIQQFAAEYTSKNSSTQDPSQPNSTKNQSLPKASPVTTSPTAATTQNPVLSKLLMADQDSKSQSEPSEQDGKSPCAGSTSLSHSPGCSSTQGNGRPGRPSQYRPDGLRSGDGVPPRSLQDGTREGFGHSTSLKVPLARSLQISEELLSRNQLSTAASLGPSGLQNHGQHLILSREASWAKPHYEFNLSRMKFRGNGALSNISDLPFLAENSAFPKMALQAKQDGKKDVSHSSPVDLKIPQVRGMDLSWESRTGDQYSYSSLVMGSQTESALSKKLRAILPKQSRKSMLDAGPDSWGSDAEQSTPGQPYPTSDQEGDPGSKQPRKKRGRYRQYNSEILEEAISVVMSGKMSVSKAQSIYGIPHSTLEYKVKERLGTLKNPPKKKMKLMRSEGPDVSVKIELDPQGEAAQSANESKNE
notes: also called LCoR derivative (m1+2)
B2: ER378 (receptor, UniProt P03372 1-378, looked up)
chain: MTMTLHTKASGMALLHQIQGNELEPLNRPQLKIPLERPLGEVYLDSSKPAVYNYPEGAAYEFNAAAAANAQVYGQTGLPYGPGSEAAAFGSNGLGGFPPLNSVSPSPLMLLHPPPQLSPFLQPHGQQVPYYLENEPSGYTVREAGPPAFYRPNSDNRRQGGRERLASTNDKGSMAMESAKETRYCAVCNDYASGYHYGVWSCEGCKAFFKRSIQGHNDYMCPATNQCTIDKNRRKSCQACRLRKCYEVGMMKGGIRKDRRGGRMLKHKRQRDDGEGRGEVGSAGDMRAANLWPSPLMIKRSKKNSLALSLTADQMVSALLDAEPPILYSEYDPTRPFSEASMMGLLTNLADRELVHMINWAKRVPGFVDLTLHDQVHL
notes: In vitro translated
B3: HE15 (receptor, UniProt P03372 1-282, looked up)
chain: MTMTLHTKASGMALLHQIQGNELEPLNRPQLKIPLERPLGEVYLDSSKPAVYNYPEGAAYEFNAAAAANAQVYGQTGLPYGPGSEAAAFGSNGLGGFPPLNSVSPSPLMLLHPPPQLSPFLQPHGQQVPYYLENEPSGYTVREAGPPAFYRPNSDNRRQGGRERLASTNDKGSMAMESAKETRYCAVCNDYASGYHYGVWSCEGCKAFFKRSIQGHNDYMCPATNQCTIDKNRRKSCQACRLRKCYEVGMMKGGIRKDRRGGRMLKHKRQRDDGEGRGEVGS
notes: range 1-282; also called ERα truncated to amino acid 282 in region D
B4: LCoR-LSKAA-rluc fusion protein (other)
chain: MQRMIQQFAAEYTSKNSSTQDPSQPNSTKNQSLPKASPVTTSPTAATTQNPVLSKAAMADQDSPLDLTVRKSQSEPSEQDGVLDLSTKKSPCAGSTSLSHSPGCSSTQGNGRPGRPSQYRPDGLRSGDGVPPRSLQDGTREGFGHSTSLKVPLARSLQISEELLSRNQLSTAASLGPSGLQNHGQHLILSREASWAKPHYEFNLSRMKFRGNGALSNISDLPFLAENSAFPKMALQAKQDGKKDVSHSSPVDLKIPQVRGMDLSWESRTGDQYSYSSLVMGSQTESALSKKLRAILPKQSRKSMLDAGPDSWGSDAEQSTPGQPYPTSDQEGDPGSKQPRKKRGRYRQYNSEILEEAISVVMSGKMSVSKAQSIYGIPHSTLEYKVKERLGTLKNPPKKKMKLMRSEGPDVSVKIELDPQGEAAQSANESKNE
notes: also called rluc-LCoR-LSKAA; not shown: Renilla luciferase (rluc) of vector pRL-CMV
B5: GST-LCoR (other)
chain: B4 chain with A56L, A57L
notes: also called GST fused to LCoR; not shown: glutathione S-transferase (GST) tag of vector pGEX2TK
B6: GST-LSKAA (other)
chain: B4 chain
notes: Positions 56 and 57 are counted from the printed motif start (53); also called GST-LCoR-LSKAA; GST fused to LCoR-LSKAA; not shown: glutathione S-transferase (GST) tag of vector pGEX2TK
B7: ERα A/B domain (receptor, UniProt P03372 1-180, looked up)
chain: MTMTLHTKASGMALLHQIQGNELEPLNRPQLKIPLERPLGEVYLDSSKPAVYNYPEGAAYEFNAAAAANAQVYGQTGLPYGPGSEAAAFGSNGLGGFPPLNSVSPSPLMLLHPPPQLSPFLQPHGQQVPYYLENEPSGYTVREAGPPAFYRPNSDNRRQGGRERLASTNDKGSMAMESAK
notes: range 1-180; also called ERα truncated to amino acid 180

Changes are numbered by the printed parent chain.

For test [1], the target named is CtBP1 (C-terminal binding protein 1) (human, UniProt Q13363 1-440). Nature of the test: coimmunoprecipitation with anti-CtBP antibody from transfected MCF-7 cells.
Procedure: For immunoprecipitation of endogenous CtBP, CtIP, Rb, or Bmi1, MCF-7 cells in 150 mm dishes were lysed 3 min at 4° C. in 1 ml of LB (150 mM NaCl/10 mM Tris-HCl pH 7.4/0.2 mM Na orthovanadate/1 mM EDTA/1 mM EGTA/1% Triton-100X/0.5% IGEPAL CA-630/protease inhibitor cocktail; Boehringer-Mannheim, Laval, Qc). Cell debris were pelleted by centrifugation (14,000 rpm, 5 min), and proteins immunoprecipitated with 4 μg of αCtBP or αCtIP or αRb or polyclonal rabbit αBMI1 or control rabbit or goat IgG at 4° C. overnight followed by 2 hours incubation at 4° C. with protein A agarose (for αCtBP, αBmi1, control rabbit IgG) or protein A+G agarose (for αCtIP or αRb or control goat IgG). Beads were washed (3×) with LB. […] For immunoprecipitation of tagged proteins, transfected MCF-7 cells were lysed 30 min at 4° C. in 1 ml of LB, 48 h after transfection. Supernatants were cleared, incubated overnight with 4 μg of aCtBP or α-Flag M2 antibody followed by 2 hours incubation with protein-A agarose or protein A+G agarose beads respectively. Beads were washed (3×) with LB and Western blotted as above. Dilutions of specific antibodies used for Western blotting were: α-CtBP1 , α-CtBP2 (1:100), α-Flag M2-peroxidase (1:100).
The target in another test is T1, GST-TIF2.1. Nature of the test: GST pull-down, in vitro translated ER378.
The target of the test “GST-LCoR” is B5. The experiment in a line: GST pull-down.
Another test concerns the target T2, ERα-EYFP fusion protein. Nature of the test: BRET in living COS-7 cells. On the procedure:
Cells were washed (2×) with PBS and harvested with 500 μl of PBS-5 mM EDTA. […] Readings were started immediately after coelenterazine H addition, and 10 repeated measures were taken.
BRET ratios were calculated as described in experimental procedures.

Another test deals with T3, HDAC4 (UniProt P56524 1-1084, limits assumed).
T3 construct: also called histone deacetylase 4
T3 sequence (P56524 whole entry): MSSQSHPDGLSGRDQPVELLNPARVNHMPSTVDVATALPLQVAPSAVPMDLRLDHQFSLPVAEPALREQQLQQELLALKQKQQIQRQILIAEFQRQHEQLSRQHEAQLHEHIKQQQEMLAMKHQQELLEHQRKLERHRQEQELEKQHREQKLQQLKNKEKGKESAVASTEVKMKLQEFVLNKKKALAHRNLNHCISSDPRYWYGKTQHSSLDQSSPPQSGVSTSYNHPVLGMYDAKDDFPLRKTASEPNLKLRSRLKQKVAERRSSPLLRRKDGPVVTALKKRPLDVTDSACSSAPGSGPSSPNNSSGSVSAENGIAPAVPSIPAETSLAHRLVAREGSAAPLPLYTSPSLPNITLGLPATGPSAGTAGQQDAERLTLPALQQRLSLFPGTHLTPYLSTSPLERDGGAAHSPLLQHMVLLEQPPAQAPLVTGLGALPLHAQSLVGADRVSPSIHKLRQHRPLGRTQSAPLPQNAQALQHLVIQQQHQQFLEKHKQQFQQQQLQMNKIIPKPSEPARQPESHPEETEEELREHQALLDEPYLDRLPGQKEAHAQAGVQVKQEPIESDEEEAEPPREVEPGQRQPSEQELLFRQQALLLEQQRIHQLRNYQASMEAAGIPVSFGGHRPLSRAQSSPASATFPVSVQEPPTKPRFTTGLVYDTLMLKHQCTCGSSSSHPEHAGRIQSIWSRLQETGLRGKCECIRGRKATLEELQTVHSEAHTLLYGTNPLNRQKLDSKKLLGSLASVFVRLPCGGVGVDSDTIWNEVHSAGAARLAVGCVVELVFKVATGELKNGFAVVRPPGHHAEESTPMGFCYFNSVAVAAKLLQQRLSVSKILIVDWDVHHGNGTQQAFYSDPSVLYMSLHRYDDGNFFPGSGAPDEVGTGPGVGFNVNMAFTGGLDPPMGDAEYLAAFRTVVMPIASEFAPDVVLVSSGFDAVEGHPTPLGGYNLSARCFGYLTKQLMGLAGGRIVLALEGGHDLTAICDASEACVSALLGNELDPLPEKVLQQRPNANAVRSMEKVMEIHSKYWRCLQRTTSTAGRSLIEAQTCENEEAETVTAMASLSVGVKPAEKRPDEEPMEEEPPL
The experiment in a line: GST pull-down, in vitro translated HDAC.

The next test has as its target T4, HDAC1 (UniProt Q13547 1-482).
T4 construct: also called histone deacetylase 1
Nature of the test: GST pull-down, in vitro translated HDAC.

T4 sequence (Q13547 whole entry): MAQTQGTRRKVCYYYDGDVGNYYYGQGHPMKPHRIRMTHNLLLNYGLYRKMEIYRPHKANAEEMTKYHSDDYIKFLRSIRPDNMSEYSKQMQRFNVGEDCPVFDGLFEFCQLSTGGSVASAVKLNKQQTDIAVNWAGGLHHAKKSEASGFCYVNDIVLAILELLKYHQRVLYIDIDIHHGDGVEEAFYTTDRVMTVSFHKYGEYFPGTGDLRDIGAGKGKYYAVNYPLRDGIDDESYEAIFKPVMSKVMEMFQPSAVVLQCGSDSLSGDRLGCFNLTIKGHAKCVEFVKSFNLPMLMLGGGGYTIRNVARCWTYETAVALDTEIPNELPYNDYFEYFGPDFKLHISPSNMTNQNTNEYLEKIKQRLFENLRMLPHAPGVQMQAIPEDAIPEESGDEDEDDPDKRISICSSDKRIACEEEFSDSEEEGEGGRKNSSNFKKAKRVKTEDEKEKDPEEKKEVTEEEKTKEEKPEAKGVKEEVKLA

In the case of B1, in test [1], the binding result is listed as “no binding”.
Consider B2, for which the binding result with GST-TIF2.1 is recorded as “no binding”.
As for B3, in the test with GST-LCoR, the binding result is listed as “no binding”.
Regarding B4, in the test with ERα-EYFP fusion protein, the “fold reduction of hormone-independent interaction against wild-type LCoR” value is about 2 fold.
B5: the binding result with HDAC4 and with HDAC1 was “no binding” each time.
With B6, the binding result with HDAC4 and with HDAC1 was “no binding” each time.
Take B7: in the test with GST-LCoR, the binding result was “no binding”.
